Article PMC7934869 (2021)

How the values were obtained:
[1] = molecular target: T1, recombinant Plasmodium falciparum circumsporozoite protein (rPfCSP) (Plasmodium falciparum 3D7, UniProt Q7K740 19-374); experiment: ITC; first site (KD1)
[2] = molecular target: T1, recombinant Plasmodium falciparum …; experiment: ITC; second site (KD2)

T1 sequence (Q7K740 19-374): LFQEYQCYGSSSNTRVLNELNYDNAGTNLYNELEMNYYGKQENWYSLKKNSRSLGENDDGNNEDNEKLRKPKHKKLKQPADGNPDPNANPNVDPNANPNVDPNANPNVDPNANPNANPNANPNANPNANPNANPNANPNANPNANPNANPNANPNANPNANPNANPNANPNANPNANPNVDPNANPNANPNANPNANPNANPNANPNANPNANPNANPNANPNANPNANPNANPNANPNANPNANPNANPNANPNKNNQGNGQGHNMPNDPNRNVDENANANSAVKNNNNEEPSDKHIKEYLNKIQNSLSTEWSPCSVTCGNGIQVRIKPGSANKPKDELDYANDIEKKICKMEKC

B1: CIS43 human monoclonal antibody (antibody, V domains shown)
VH: QVQLVQSGAEVKKPGASVKVSCKASGYTFTSYAIHWVRQAPGQRLEWMGWIKAGNGNTRYSQKFQDRVTITRDTSTTTAYMELSSLRSEDTAVYYCALLTVLTPDDAFDIWGQGTMVTVSS
VL: not shown
With B1 the Kd [1] was 7.9 nM and the Kd [2] was 42 nM.
